The values that follow are results of earlier work, collected in article PMC10499909.

The term pKd denotes −log10 of the Kd, conventionally taken in molar units.

In the data set the target is lactoferrin (species not stated, cited Kd) (UniProt P02788). To be noted: PBS pH 6.8, 37 °C, 30 min in dark; CDs-aptamer 0.05 mg/mL with graphene oxide nanosheets.

pKd: −log10 of the molar value.

lactoferrin (species not stated, cited Kd), sequence (P02788 20-710): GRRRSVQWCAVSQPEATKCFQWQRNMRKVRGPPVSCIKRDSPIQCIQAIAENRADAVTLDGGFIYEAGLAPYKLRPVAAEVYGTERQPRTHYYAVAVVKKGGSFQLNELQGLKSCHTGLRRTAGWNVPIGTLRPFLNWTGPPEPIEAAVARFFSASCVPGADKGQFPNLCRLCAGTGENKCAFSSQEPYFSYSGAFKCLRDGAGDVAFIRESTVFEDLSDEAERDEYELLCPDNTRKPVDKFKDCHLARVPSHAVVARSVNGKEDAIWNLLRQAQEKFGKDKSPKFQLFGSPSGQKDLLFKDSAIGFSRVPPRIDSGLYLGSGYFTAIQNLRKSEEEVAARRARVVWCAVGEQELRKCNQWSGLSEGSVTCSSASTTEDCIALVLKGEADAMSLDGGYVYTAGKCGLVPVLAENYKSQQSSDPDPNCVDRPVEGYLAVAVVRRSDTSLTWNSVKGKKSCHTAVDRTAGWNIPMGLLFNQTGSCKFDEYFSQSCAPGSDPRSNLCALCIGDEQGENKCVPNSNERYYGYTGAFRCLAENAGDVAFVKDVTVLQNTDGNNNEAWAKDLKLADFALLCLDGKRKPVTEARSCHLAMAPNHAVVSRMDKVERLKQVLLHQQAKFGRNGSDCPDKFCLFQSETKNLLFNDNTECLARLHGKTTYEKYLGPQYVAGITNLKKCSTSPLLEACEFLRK

“AGGCAGGACACCGTAACCGGTGCATCTATGGCTACTAGCTCTTCCTGCCT [LF aptamer]”: the pKd is 8.30.
